Here are results for seven molecules from patent US20040002059A1 (Boehringer Ingelheim, published 2004).

The target in data set [1] is N-terminally truncated HPV-11 E1 (E1*, amino acids 72-649) (human papilloma virus type 11 (HPV-11)) (UniProt P04014). Description: cell-based or functional assay.
Data set [2] concerns the molecule itself. Description: BMH cross-linking of 35S-labelled protein, immunoprecipitation, gel electrophoresis (FIG. 10).
Data set [3] concerns the molecule itself. Nature of the data set: BMH cross-linking with ss DNA (FIG. 12B).
The target in data set [4] is T1, HPV-11 E1 (330-649) fused to the GAL4 DNA-binding domain (BD) (human papilloma virus type 11 (HPV-11)).
T1 construct: also called larger E1 fragment (330-649)
Description: yeast two-hybrid, β-galactosidase activity (FIG. 1B).

Data set [5] concerns the molecule itself. Nature of the data set: BMH cross-linking of in-vitro translated truncated proteins (FIG. 11).

Molecule “thioredoxin fusion protein TRX-E1 (353-431) (from UniProt P04014 353-431)” came in with a 50% inhibitory concentration for inhibition of the binding of E1* (72-649) to the origin in data set [1] of 3 µM.

B1: N-terminally truncated HPV-11 E1 (E1*, amino acids 72-649) (enzyme)
chain: ADAHYATVQDLKRKYLGSPYVSPISNVANAVESEISPRLDAIKLTTQPKKVKRRLFETRELTDSGYGYSEVEAATQVEKHGDPENGGDGEERDTGRDIEGEGVEHREAEAVDDSTREHADTSGILELLKCKDIRSTLHGKFKDCFGLSFVDLIRPFKSDRTTCADWVVAGFGIHHSIADAFQKLIEPLSLYAHIQWLTNAWGMVLLVLIRFKVNKSRCTVARTLGTLLNIPENHMLIEPPKIQSGVAALYWFRTGISNASTVIGEAPEWITRQTVIEHSLADSQFKLTEMVQWAYDNDICEESEIAFEYAQRGDFDSNARAFLNSNMQAKYVKDCAIMCRHYKHAEMKKMSIKQWIKYRGTKVDSVGNWKPIVQFLRHQNIEFIPFLSKLKLWLHGTPKKNCIAIVGPPDTGKSCFCMSLIKFLGGTVISYVNSCSHFWLQPLTDAKVALLDDATQPCWTYMDTYMRNLLDGNPMSIDRKHRALTLIKCPPLLVTSNIDISKEEKYKYLHSRVTTFTFPNPFPFDRNGNAVYELSDANWKCFFERLSSSLDIEDSEDEEDGSNSQAFRCVPGSVVRTL
notes: Made by coupled in vitro transcription/translation in rabbit reticulocyte lysate; 35S-labelled in the cross-linking assay; Forms up to hexamers; also called E1 (72-649); E1* (72-649)
B1: in data set [2], the binding result is recorded as “binds”.

B2: E1* (72-649) F509A (enzyme)
chain: ADAHYATVQDLKRKYLGSPYVSPISNVANAVESEISPRLDAIKLTTQPKKVKRRLFETRELTDSGYGYSEVEAATQVEKHGDPENGGDGEERDTGRDIEGEGVEHREAEAVDDSTREHADTSGILELLKCKDIRSTLHGKFKDCFGLSFVDLIRPFKSDRTTCADWVVAGFGIHHSIADAFQKLIEPLSLYAHIQWLTNAWGMVLLVLIRFKVNKSRCTVARTLGTLLNIPENHMLIEPPKIQSGVAALYWFRTGISNASTVIGEAPEWITRQTVIEHSLADSQFKLTEMVQWAYDNDICEESEIAFEYAQRGDFDSNARAFLNSNMQAKYVKDCAIMCRHYKHAEMKKMSIKQWIKYRGTKVDSVGNWKPIVQFLRHQNIEFIPFLSKLKLWLHGTPKKNCIAIVGPPDTGKSCFCMSLIKFLGGTVISYVNSCSHAWLQPLTDAKVALLDDATQPCWTYMDTYMRNLLDGNPMSIDRKHRALTLIKCPPLLVTSNIDISKEEKYKYLHSRVTTFTFPNPFPFDRNGNAVYELSDANWKCFFERLSSSLDIEDSEDEEDGSNSQAFRCVPGSVVRTL
In the case of B2, the binding result in data set [3] is “binds”.

B3: C-terminal HPV-11 E1 fragment (amino acids 435-649) fused to the GAL4 activation domain (AD) (other)
chain: DSVGNWKPIVQFLRHQNIEFIPFLSKLKLWLHGTPKKNCIAIVGPPDTGKSCFCMSLIKFLGGTVISYVNSCSHFWLQPLTDAKVALLDDATQPCWTYMDTYMRNLLDGNPMSIDRKHRALTLIKCPPLLVTSNIDISKEEKYKYLHSRVTTFTFPNPFPFDRNGNAVYELSDANWKCFFERLSSSLDIEDSEDEEDGSNSQAFRCVPGSVVRTL
notes: also called E1 (435-649)
Take B3: the binding result in data set [4] is “no binding”.

B4: truncated HPV-11 E1 (353-649) made by in-vitro translation (enzyme)
chain: DSQFKLTEMVQWAYDNDICEESEIAFEYAQRGDFDSNARAFLNSNMQAKYVKDCAIMCRHYKHAEMKKMSIKQWIKYRGTKVDSVGNWKPIVQFLRHQNIEFIPFLSKLKLWLHGTPKKNCIAIVGPPDTGKSCFCMSLIKFLGGTVISYVNSCSHFWLQPLTDAKVALLDDATQPCWTYMDTYMRNLLDGNPMSIDRKHRALTLIKCPPLLVTSNIDISKEEKYKYLHSRVTTFTFPNPFPFDRNGNAVYELSDANWKCFFERLSSSLDIEDSEDEEDGSNSQAFRCVPGSVVRTL
notes: also called residues 353-649 of E1
In the case of B4, the binding result in data set [5] was “binds”.

B5: truncated HPV-11 E1 (191-649) made by in-vitro translation (enzyme)
chain: DTSGILELLKCKDIRSTLHGKFKDCFGLSFVDLIRPFKSDRTTCADWVVAGFGIHHSIADAFQKLIEPLSLYAHIQWLTNAWGMVLLVLIRFKVNKSRCTVARTLGTLLNIPENHMLIEPPKIQSGVAALYWFRTGISNASTVIGEAPEWITRQTVIEHSLADSQFKLTEMVQWAYDNDICEESEIAFEYAQRGDFDSNARAFLNSNMQAKYVKDCAIMCRHYKHAEMKKMSIKQWIKYRGTKVDSVGNWKPIVQFLRHQNIEFIPFLSKLKLWLHGTPKKNCIAIVGPPDTGKSCFCMSLIKFLGGTVISYVNSCSHFWLQPLTDAKVALLDDATQPCWTYMDTYMRNLLDGNPMSIDRKHRALTLIKCPPLLVTSNIDISKEEKYKYLHSRVTTFTFPNPFPFDRNGNAVYELSDANWKCFFERLSSSLDIEDSEDEEDGSNSQAFRCVPGSVVRTL
notes: also called E1 protein comprised of amino acids 191-649
Consider B5, for which the binding result in data set [5] is “binds”.

B6: truncated HPV-11 E1 (330-649) made by in-vitro translation (enzyme)
chain: ASTVIGEAPEWITRQTVIEHSLADSQFKLTEMVQWAYDNDICEESEIAFEYAQRGDFDSNARAFLNSNMQAKYVKDCAIMCRHYKHAEMKKMSIKQWIKYRGTKVDSVGNWKPIVQFLRHQNIEFIPFLSKLKLWLHGTPKKNCIAIVGPPDTGKSCFCMSLIKFLGGTVISYVNSCSHFWLQPLTDAKVALLDDATQPCWTYMDTYMRNLLDGNPMSIDRKHRALTLIKCPPLLVTSNIDISKEEKYKYLHSRVTTFTFPNPFPFDRNGNAVYELSDANWKCFFERLSSSLDIEDSEDEEDGSNSQAFRCVPGSVVRTL
In the case of B6, the binding result in data set [5] is “binds”.
